Source: the supplement of paper PMC10567573

B1: CRYL1 (parent)
chain: RNALENIRKEMKLLEQAGSLKGSL

Variants of: B1
Assay: protein stability index of a GFP-peptide fusion (GPS, HEK-293T) (PSI 1-6); higher = more stable
Conditions: c terminus: a fixed tail appended
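Also: lentivirally expressed fusions sorted by FACS into six bins by GFP to DsRed ratio, PSI derived from sequencing read proportions per bin multiplied by bin number.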

Row | Variant | protein stability index
1 | GNALENIRKEMKLLEQAGSLKGSL | 3.82
2 | PNALENIRKEMKLLEQAGSLKGSL | 3.37
3 | INALENIRKEMKLLEQAGSLKGSL | 2.69
4 | MNALENIRKEMKLLEQAGSLKGSL | 3.11
5 | QNALENIRKEMKLLEQAGSLKGSL | 3.65
6 | VNALENIRKEMKLLEQAGSLKGSL | 3.53
7 | LNALENIRKEMKLLEQAGSLKGSL | 3.21
8 | NNALENIRKEMKLLEQAGSLKGSL | 3.83
9 | TNALENIRKEMKLLEQAGSLKGSL | 3.87
10 | CNALENIRKEMKLLEQAGSLKGSL | 2.87
11 | SNALENIRKEMKLLEQAGSLKGSL | 3.48
12 | ENALENIRKEMKLLEQAGSLKGSL | 3.65
13 | YNALENIRKEMKLLEQAGSLKGSL | 3.04
14 | KNALENIRKEMKLLEQAGSLKGSL | 3.77
15 | WNALENIRKEMKLLEQAGSLKGSL | 3.34
16 | ANALENIRKEMKLLEQAGSLKGSL | 2.86
17 | HNALENIRKEMKLLEQAGSLKGSL | 3.47
18 | DNALENIRKEMKLLEQAGSLKGSL | 3.7
19 | FNALENIRKEMKLLEQAGSLKGSL | 2.46
20 | RNALENIWKEMKLLEQAGSLKGSL | 2.3
21 | RNALENIYKEMKLLEQAGSLKGSL | 2.45
22 | RNALENIHKEMKLLEQAGSLKGSL | 4.05
23 | RNALENIEKEMKLLEQAGSLKGSL | 2.58
24 | RNALENIAKEMKLLEQAGSLKGSL | 3.72

Row | Variant | protein stability index
25 | RNALENIGKEMKLLEQAGSLKGSL | 3.77
26 | RNALENIVKEMKLLEQAGSLKGSL | 3.25
27 | RNALENIFKEMKLLEQAGSLKGSL | 2.07
28 | RNALENINKEMKLLEQAGSLKGSL | 4.19
29 | RNALENICKEMKLLEQAGSLKGSL | 2.84
30 | RNALENIKKEMKLLEQAGSLKGSL | 3.04
31 | RNALENILKEMKLLEQAGSLKGSL | 1.65
32 | RNALENISKEMKLLEQAGSLKGSL | 3.87
33 | RNALENIMKEMKLLEQAGSLKGSL | 2.92
34 | RNALENIIKEMKLLEQAGSLKGSL | 1.84
35 | RNALENIDKEMKLLEQAGSLKGSL | 4.49
36 | RNALENITKEMKLLEQAGSLKGSL | 4.19
37 | RNALENIQKEMKLLEQAGSLKGSL | 3.92
38 | RNALENIPKEMKLLEQAGSLKGSL | 4.29
39 | RNALENIRKEDKLLEQAGSLKGSL | 4.34
40 | RNALENIRKEAKLLEQAGSLKGSL | 3.4
41 | RNALENIRKEFKLLEQAGSLKGSL | 3.13
42 | RNALENIRKEIKLLEQAGSLKGSL | 3.24
43 | RNALENIRKEGKLLEQAGSLKGSL | 4
44 | RNALENIRKEEKLLEQAGSLKGSL | 4.45
45 | RNALENIRKECKLLEQAGSLKGSL | 3.37
46 | RNALENIRKEKKLLEQAGSLKGSL | 2.79
47 | RNALENIRKEHKLLEQAGSLKGSL | 4.45
48 | RNAHENIRKEMKLLEQAGSLKGSL | 4.15

Row | Variant | protein stability index
49 | RNAWENIRKEMKLLEQAGSLKGSL | 3.16
50 | RNAQENIRKEMKLLEQAGSLKGSL | 4.75
51 | RNAIENIRKEMKLLEQAGSLKGSL | 3.21
52 | RNAAENIRKEMKLLEQAGSLKGSL | 3.93
53 | RNAKENIRKEMKLLEQAGSLKGSL | 3.67
54 | RNATENIRKEMKLLEQAGSLKGSL | 4.37
55 | RNADENIRKEMKLLEQAGSLKGSL | 5
56 | RNAEENIRKEMKLLEQAGSLKGSL | 4.65
57 | RNASENIRKEMKLLEQAGSLKGSL | 4.36
58 | RNAVENIRKEMKLLEQAGSLKGSL | 3.65
59 | RNANENIRKEMKLLEQAGSLKGSL | 4.39
60 | RNAGENIRKEMKLLEQAGSLKGSL | 3.14
61 | RNAMENIRKEMKLLEQAGSLKGSL | 3.37
62 | RNACENIRKEMKLLEQAGSLKGSL | 4.05
63 | RNAFENIRKEMKLLEQAGSLKGSL | 2.92
64 | RNALENIRLEMKLLEQAGSLKGSL | 1.94
65 | RNALENIRPEMKLLEQAGSLKGSL | 3.58
66 | RNALENIRNEMKLLEQAGSLKGSL | 3.12
67 | RNALENIRIEMKLLEQAGSLKGSL | 1.48
68 | RNALENIRQEMKLLEQAGSLKGSL | 3.29
69 | RNALENIRMEMKLLEQAGSLKGSL | 2.32
70 | RNALENIRVEMKLLEQAGSLKGSL | 3.78
71 | RNALENIRCEMKLLEQAGSLKGSL | 2.29
72 | RNALENIREEMKLLEQAGSLKGSL | 3.83

Row | Variant | protein stability index
73 | RNALENIRREMKLLEQAGSLKGSL | 3.31
74 | RNALENIRSEMKLLEQAGSLKGSL | 3.61
75 | RNALENIRFEMKLLEQAGSLKGSL | 1.95
76 | RNALENIRDEMKLLEQAGSLKGSL | 3.57
77 | RNALENIRTEMKLLEQAGSLKGSL | 3.43
78 | RNALENIRYEMKLLEQAGSLKGSL | 2.78
79 | RNALENIRGEMKLLEQAGSLKGSL | 3.61
80 | RNALENIRWEMKLLEQAGSLKGSL | 1.8
81 | RNALENIRHEMKLLEQAGSLKGSL | 2.9
82 | RNALENVRKEMKLLEQAGSLKGSL | 3.53
83 | RNALENYRKEMKLLEQAGSLKGSL | 3.67
84 | RNALENTRKEMKLLEQAGSLKGSL | 3.9
85 | RNALENDRKEMKLLEQAGSLKGSL | 4.75
86 | RNALENMRKEMKLLEQAGSLKGSL | 3.29
87 | RNALENHRKEMKLLEQAGSLKGSL | 3.74
88 | RNALENSRKEMKLLEQAGSLKGSL | 3.69
89 | RNALENWRKEMKLLEQAGSLKGSL | 3.15
90 | RNALENNRKEMKLLEQAGSLKGSL | 4.37
91 | RNALENKRKEMKLLEQAGSLKGSL | 5.08
92 | RNALENLRKEMKLLEQAGSLKGSL | 2.48
93 | RNALENCRKEMKLLEQAGSLKGSL | 2.3
94 | RNALENPRKEMKLLEQAGSLKGSL | 4.22
95 | RNALENARKEMKLLEQAGSLKGSL | 4.35
96 | RNALENFRKEMKLLEQAGSLKGSL | 2.37

Row | Variant | protein stability index
97 | RNALENERKEMKLLEQAGSLKGSL | 4.02
98 | RNALENIRKDMKLLEQAGSLKGSL | 3.33
99 | RNALENIRKKMKLLEQAGSLKGSL | 2.31
100 | RNALENIRKFMKLLEQAGSLKGSL | 1.61
101 | RNALENIRKMMKLLEQAGSLKGSL | 1.23
102 | RNALENIRKVMKLLEQAGSLKGSL | 2.63
103 | RNALENIRKSMKLLEQAGSLKGSL | 2.33
104 | RNALENIRKRMKLLEQAGSLKGSL | 1.87
105 | RNALENIRKCMKLLEQAGSLKGSL | 1.83
106 | RNALENIRKGMKLLEQAGSLKGSL | 2.87
107 | RNALENIRKWMKLLEQAGSLKGSL | 2.89
108 | RNALENIRKLMKLLEQAGSLKGSL | 2.44
109 | RNALENIRKIMKLLEQAGSLKGSL | 1.92
110 | RNALENIRKYMKLLEQAGSLKGSL | 1.08
111 | RNALENIRKNMKLLEQAGSLKGSL | 2.89
112 | RNALENIRKTMKLLEQAGSLKGSL | 2.39
113 | RNALENIRKQMKLLEQAGSLKGSL | 2.59
114 | RNALENIRKAMKLLEQAGSLKGSL | 2.36
115 | RNALENIRKHMKLLEQAGSLKGSL | 2.68
116 | RNALENIRKPMKLLEQAGSLKGSL | 3.06
117 | RNALPNIRKEMKLLEQAGSLKGSL | 3.7
118 | RNALCNIRKEMKLLEQAGSLKGSL | 2.98
119 | RNALSNIRKEMKLLEQAGSLKGSL | 2.78
120 | RNALMNIRKEMKLLEQAGSLKGSL | 3

Row | Variant | protein stability index
121 | RNALRNIRKEMKLLEQAGSLKGSL | 3.06
122 | RNALHNIRKEMKLLEQAGSLKGSL | 2.88
123 | RNALANIRKEMKLLEQAGSLKGSL | 2.68
124 | RNALQNIRKEMKLLEQAGSLKGSL | 3.34
125 | RNALYNIRKEMKLLEQAGSLKGSL | 1.97
126 | RNALDNIRKEMKLLEQAGSLKGSL | 3.85
127 | RNALFNIRKEMKLLEQAGSLKGSL | 2.5
128 | RNALWNIRKEMKLLEQAGSLKGSL | 2.69
129 | RNALINIRKEMKLLEQAGSLKGSL | 3.57
130 | RNALNNIRKEMKLLEQAGSLKGSL | 2.46
131 | RNALLNIRKEMKLLEQAGSLKGSL | 2.55
132 | RNALVNIRKEMKLLEQAGSLKGSL | 2.82
133 | RNALGNIRKEMKLLEQAGSLKGSL | 3.21
134 | RNALKNIRKEMKLLEQAGSLKGSL | 2.7
135 | RKALENIRKEMKLLEQAGSLKGSL | 2.83
136 | RLALENIRKEMKLLEQAGSLKGSL | 2.88
137 | RRALENIRKEMKLLEQAGSLKGSL | 3.49
138 | RGALENIRKEMKLLEQAGSLKGSL | 3.57
139 | RHALENIRKEMKLLEQAGSLKGSL | 3.49
140 | RAALENIRKEMKLLEQAGSLKGSL | 3.1
141 | REALENIRKEMKLLEQAGSLKGSL | 3.65
142 | RCALENIRKEMKLLEQAGSLKGSL | 2.72
143 | RIALENIRKEMKLLEQAGSLKGSL | 2.69
144 | RPALENIRKEMKLLEQAGSLKGSL | 4.16

Row | Variant | protein stability index
145 | RYALENIRKEMKLLEQAGSLKGSL | 2.48
146 | RDALENIRKEMKLLEQAGSLKGSL | 3.52
147 | RFALENIRKEMKLLEQAGSLKGSL | 2.87
148 | RMALENIRKEMKLLEQAGSLKGSL | 3.05
149 | RWALENIRKEMKLLEQAGSLKGSL | 2.34
150 | RTALENIRKEMKLLEQAGSLKGSL | 2.92
151 | RQALENIRKEMKLLEQAGSLKGSL | 3.39
152 | RSALENIRKEMKLLEQAGSLKGSL | 2.85
153 | RNALEQIRKEMKLLEQAGSLKGSL | 3.03
154 | RNALEPIRKEMKLLEQAGSLKGSL | 3.4
155 | RNALELIRKEMKLLEQAGSLKGSL | 2.17
156 | RNALESIRKEMKLLEQAGSLKGSL | 3.72
157 | RNALEGIRKEMKLLEQAGSLKGSL | 3.79
158 | RNALEIIRKEMKLLEQAGSLKGSL | 2.45
159 | RNALECIRKEMKLLEQAGSLKGSL | 2.33
160 | RNALEHIRKEMKLLEQAGSLKGSL | 3.38
161 | RNALEAIRKEMKLLEQAGSLKGSL | 3.66
162 | RNALEEIRKEMKLLEQAGSLKGSL | 3.2
163 | RNALEVIRKEMKLLEQAGSLKGSL | 3.03
164 | RNALEMIRKEMKLLEQAGSLKGSL | 2.98
165 | RNALEKIRKEMKLLEQAGSLKGSL | 3.06
166 | RNALEDIRKEMKLLEQAGSLKGSL | 3.76
167 | RNALEYIRKEMKLLEQAGSLKGSL | 2.53
168 | RNALETIRKEMKLLEQAGSLKGSL | 2.53

Row | Variant | protein stability index
169 | RNALEFIRKEMKLLEQAGSLKGSL | 1.68
170 | RNALEWIRKEMKLLEQAGSLKGSL | 2.23
171 | RNWLENIRKEMKLLEQAGSLKGSL | 2.57
172 | RNMLENIRKEMKLLEQAGSLKGSL | 3.75
173 | RNTLENIRKEMKLLEQAGSLKGSL | 4.32
174 | RNDLENIRKEMKLLEQAGSLKGSL | 3.75
175 | RNLLENIRKEMKLLEQAGSLKGSL | 2.64
176 | RNFLENIRKEMKLLEQAGSLKGSL | 2.6
177 | RNQLENIRKEMKLLEQAGSLKGSL | 3.9
178 | RNKLENIRKEMKLLEQAGSLKGSL | 3.48
179 | RNPLENIRKEMKLLEQAGSLKGSL | 4.1
180 | RNSLENIRKEMKLLEQAGSLKGSL | 4.31
181 | RNVLENIRKEMKLLEQAGSLKGSL | 2.83
182 | RNCLENIRKEMKLLEQAGSLKGSL | 2.45
183 | RNRLENIRKEMKLLEQAGSLKGSL | 3.98
184 | RNELENIRKEMKLLEQAGSLKGSL | 2.94
185 | RNILENIRKEMKLLEQAGSLKGSL | 2.31
186 | RNGLENIRKEMKLLEQAGSLKGSL | 3.34
187 | RNYLENIRKEMKLLEQAGSLKGSL | 2.56
188 | RNNLENIRKEMKLLEQAGSLKGSL | 3.75
